From US20070065439A1
Residue numbers refer to the chain shown, from its start.

B1: 8.18.1 (antibody, human IgG4, V domains shown)
VH: QVQLQESGPGLVKPSETLSLTCTVSGGSVSSGGYYWSWIRQPPGKGLEWIGYFYYSGSPNYNPSLKRRIAISVDTSKNQFSLRLSSVTAADTAVYYCARDPMHYYGMDVWGQGTTVTVSS
VL: SSELTQPPSVSVFPGQTANITCSGDKLGDKFACWYQQKPGQSPVLVIYRDNKRPSGIPERFSGSNSGNTATLTISGTQAMDEADYYCQAWDSSTYVVFGGGTKLTVL
B2: 6.26.1 (antibody, human IgG4, V domains shown)
VH: QLQLQESGPGLVKPSETLSLTCTVSGGSISRSSYYWGWIRQPPGKGLEWMGNIYYSGSTHYNPSLKSRVTISVDTSKNQFSLKLSSVTAADTAVFYCAKGREYISSSGYGMDVWGQGTTVTVS
VL: SYELTQPPSVSVSPGQTASITCSGDKLGNKYVCWYQQKPGQSPVLVIFQDSRRPSGIPERFSGSNSGNTATLTISGTQAMDEADYYCQAWDTSTVIFGGGTKLTVL
B3: 9.11.1 (antibody, human IgG4, V domains shown)
VH: QVQLVESGGGVVQPGRSLRLSCAASGFTFSVYGMHWVRQAPGKGLEWVAVIWYDGNNKYYVDSVKGRFTISRDNSKNTLYLQLNSLRAEDTAVYYCARERSSSWYFDYWGQGTLVTVSS
VL: QSALTQPASVSGSSGQSITISCTGTSSDVGSYNLVSWYQQHPGKAPKLMIYEVSKRPSGVSNRFSGSKSGNTASLTISGLQAEDEADYYCCSYAGNSNWVFGGGTKLTVL
B4: 4.20.1 (antibody, human IgG4, V domains shown)
VH: QVQLVESGGGVVQPGRSLRLSCAASGFTFSNYGMNWVRQAPGKGLEWVAVIWYDGNNKSEADSVKGRFTISRDNSKNTLYLQMNSLRAEDTAVYYCARDSRSGPFDYWGQGTLVTVSS
VL: EIVLTQSPDFQSVTPKEKVTITCRASQSIGSSLHWYQQKPDQSPKLLIKFASQSFSGVPSRISGSGSGTDFTLTINSLEAEDAATYYCHQSSSLPFTFGPGTKVDIK
B5: 9.19.1 (antibody, human IgG4, V domains shown)
VH: QVQLVESGGGVVQPGRSLRLSCAASGFTFNNYGMHWVRQAPGKGLECVAVIWYDGGNKYYADSVKGRFAISRDNSKNTLYLQMNSLRAEDTAVYYCTAVTKLNYYYGMDVWGQRTTVTVS
VL: QSALTQPASVSGSPGQSITISCTGTSSDVGGYNYVSWYQQHPGKAPKFMIYEVSNRPSGVSNRFSGSKSGNTASLTISGLQAEDEADYYCSSYTSSSILVFGGGTKLTVL
B6: 5.5.1 (antibody, IgG4, V domains shown)
VH: B3 VH with V31S, N56D, V61A, K65Q, L83M, A88P
VL: B3 VL with S14P, V60I, N96S, N98T
B7: 9.26.1 (antibody, human IgG4, V domains shown)
VH: B5 VH with R114G
VL: B5 VL with F48L
B8: 9.2.1 (antibody, human IgG4, V domains shown)
VH: B5 VH with K101T, N103Y, R114G
VL: B5 VL with F48L
B9: 5.36.1 (antibody, human IgG4, V domains shown)
VH: QVQLQQSGPGLVKPSQTLSLTCAISGDSVSSNSAAWNWIRQSPSRGLEWLGRTYYRSKWYNDYAVSVKSRITINPDTSKNQFSLQLNSVTPEDTAVYYCAREEQQLVRYYYYYGMDVWGQGTTVTVS
VL: DIVMTQTPLSLSVTPGQPASISCKSSQSLLHSDGRTYLYWYLQRPGQPPQLLIYEASYRFSGVPDRFSGSGSGTDFTLKISRVEAEDVGIYYCMQSIQLPRTFGQGTRLEIK
B10: 8.50.1 (antibody, human IgG4, V domains shown)
VH: QVQLQESGPGLVKPSETLSLTCTVSGGSISSDYWSWIRQPAGKGLEWIGRFYNSGRTNYRPSLKSRITMSVDTSKNQFSLKLSSVTAADTAVYYCARDMYSGRGNWYFDLWGRGTLVTVS
VL: SYELTQPPSVSVSPGQTARITCSGDALPKKYAYWYQQKSGQAPVLVIYEDSKRPSGIPERFSGSSSGTMATLTISGAQVEDEADYYCYSTDSSDNHRVFGGGTKLTVL
B11: 9.31.1 (antibody, human IgG4, V domains shown)
VH: QVQLVESGGGLVKPGGSLRLSCAASGFTFSDYYMSWIRQAPGKGLEWVSYIRSSGSTIYYADSVKGRFTISRDNAKNSLYLQMNSLRAEDTAVYYCARTPYSGRYHWYFDLWGRGTLVTVS
VL: B10 VL with K29I, Q37H, D94G

What follows are binders tested against Cynomolgus monkey IL-1β (cynomolgus monkey) (assay: Biacore low-res, mAb captured, cyno IL-1β 117 nM, 25C).
Sequence of Cynomolgus monkey IL-1β (cynomolgus monkey) (P48090 117-269 limits assumed): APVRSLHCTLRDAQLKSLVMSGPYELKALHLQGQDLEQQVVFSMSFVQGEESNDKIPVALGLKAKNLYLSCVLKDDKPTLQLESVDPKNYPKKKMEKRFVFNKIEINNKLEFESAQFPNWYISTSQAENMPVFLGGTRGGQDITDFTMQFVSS

Binder | Kd | koff | kon
B1 | 0.8 nM | 9.2e-05 s⁻¹ | 110000 M⁻¹ s⁻¹
B2 | 1.1 nM | 0.00031 s⁻¹ | 270000 M⁻¹ s⁻¹
B3 | 0.8 nM | 0.00027 s⁻¹ | 330000 M⁻¹ s⁻¹
B4 | 6.3 nM | 0.005 s⁻¹ | 800000 M⁻¹ s⁻¹
B5 | 0.5 nM | 0.00012 s⁻¹ | 260000 M⁻¹ s⁻¹
B6 | 4.6 nM | 0.0011 s⁻¹ | 240000 M⁻¹ s⁻¹
B7 | 1.3 nM | 0.0002 s⁻¹ | 150000 M⁻¹ s⁻¹
B8 | 4.5 nM | 0.0014 s⁻¹ | 310000 M⁻¹ s⁻¹
B9 | 3.4 nM | 0.00072 s⁻¹ | 210000 M⁻¹ s⁻¹
B10 | 2.5 nM | 0.0012 s⁻¹ | 470000 M⁻¹ s⁻¹
B11 | 5 nM | 0.0015 s⁻¹ | 300000 M⁻¹ s⁻¹
